Key:
[1] = target: T1, human RAGE-Fc fusion protein (human, UniProt Q15109 23-344); assay: ligand competition ELISA, panel 'Blocks hRAGE-Fc interaction with S100-B'; blocked ligand S100-B
T1 construct: amino acids 1-344 of human RAGE appended to the Fc domain of human IgG; also called hRAGE-Fc; huRAGE-Fc

[2] = target: T2, human RAGE-strep tag fusion protein (human, UniProt Q15109 23-344); assay: BIACORE capture assay: hRAGE-SA over antibody captured on anti-human Fc; steady state affinity; average of FC2-FC4
T2 construct: monomeric soluble human RAGE; also called hRAGE-SA; soluble human streptavidin-tagged RAGE
Protocol: (§1) The assays were performed by coating anti-human Fc antibodies onto a CM5 BIA chip with 5000 RU (pH 5.0, 7 min.) in flow cells 1-4. Each antibody was captured by flowing at 2.0 μg/ml over the anti-Fc antibodies in flow cells 2-4 (flow cell 1 was used as a reference).

[3] = target: T2, human RAGE-strep tag fusion protein; assay: BIACORE capture assay: hRAGE-SA over antibody captured on anti-human Fc; steady state affinity; FC2
Protocol: as §1

[4] = target: T3, murine RAGE-strep tag fusion protein (murine, UniProt Q62151 23-343); assay: BIACORE capture assay: mRAGE-SA (SA-Mu RAGE) over antibody captured on anti-human Fc; 1:1 Langmuir global fit; average of FC2-FC4
T3 construct: also called mRAGE-strep; mRAGE-SA
T3 chain: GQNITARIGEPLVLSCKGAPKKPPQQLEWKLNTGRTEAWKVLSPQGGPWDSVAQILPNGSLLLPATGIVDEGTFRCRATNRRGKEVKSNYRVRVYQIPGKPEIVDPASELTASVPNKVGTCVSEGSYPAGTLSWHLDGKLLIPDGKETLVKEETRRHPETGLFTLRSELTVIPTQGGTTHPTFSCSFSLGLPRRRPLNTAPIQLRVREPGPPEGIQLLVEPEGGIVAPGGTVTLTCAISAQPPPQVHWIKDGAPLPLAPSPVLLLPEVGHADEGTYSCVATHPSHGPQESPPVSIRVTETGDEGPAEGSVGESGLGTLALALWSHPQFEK
Protocol: as §1

[5] = target: T2, human RAGE-strep tag fusion protein; assay: BIACORE capture assay: hRAGE-SA over antibody captured on anti-human Fc; steady state affinity; FC4
Protocol: as §1

[6] = target: T3, murine RAGE-strep tag fusion protein; assay: BIACORE capture assay: mRAGE-SA (SA-Mu RAGE) over antibody captured on anti-human Fc; 1:1 Langmuir global fit; FC4
Protocol: as §1

[7] = target: T2, human RAGE-strep tag fusion protein; assay: BIACORE, antibody coated on CM5 chip, hRAGE-SA in flow
[8] = target: T2, human RAGE-strep tag fusion protein; assay: BIACORE capture assay: hRAGE-SA over antibody captured on anti-human Fc; 1:1 Langmuir global fit; FC2
Protocol: as §1

rhICAM-1-Fc = target: T4, rhICAM-1-Fc (human, UniProt P05362 28-480); assay: direct binding ELISA, receptor coated 1 µg/ml, antibody 20 µg/ml
T4 construct: also called rhlCAM-1-Fc
Protocol: (§2) These receptors were chosen because they are cell-surface expressed, like RAGE, and their interaction with ligand is similarly dependent on charge. Tested receptors were rhVCAM-1, rhICAM-1-Fc, rhTLR4 (C-terminal His tag), rhNCAM-1, rhB7-H1-Fc mLox1-Fc, hLox1-Fc and hRAGE-Fc (as a positive control). ELISA plates were coated overnight with 1 μg/ml of the listed receptor proteins.

[9] = target: T1, human RAGE-Fc fusion protein; assay: as above
Protocol: as §2

hLox1-Fc = hLox1-Fc (human, UniProt P78380 61-273); assay: as above
Protocol: as §2

rhNCAM-1 = rhNCAM-1 (human, UniProt P13591-1 20-603, limits assumed); assay: as above
Protocol: as §2

[10] = target: T2, human RAGE-strep tag fusion protein; assay: BIACORE, antibody coated on CM5 chip, hRAGE-SA in flow; remark: listed apart in the source
Protocol: The assays were performed by coating antibodies onto a CM5 BIA chip with 5000-7000 RU.

[11] = target: T1, human RAGE-Fc fusion protein; assay: ligand competition ELISA, panel 'Blocks hRAGE-Fc interaction with S100-A'; blocked ligand S100-A
[12] = target: T3, murine RAGE-strep tag fusion protein; assay: BIACORE capture assay: mRAGE-SA (SA-Mu RAGE) over antibody captured on anti-human Fc; 1:1 Langmuir global fit; FC3
Protocol: as §1

[13] = target: T2, human RAGE-strep tag fusion protein; assay: BIACORE capture assay: hRAGE-SA over antibody captured on anti-human Fc; 1:1 Langmuir global fit; FC4
Protocol: as §1

[14] = target: T3, murine RAGE-strep tag fusion protein; assay: BIACORE capture assay: mRAGE-SA (SA-Mu RAGE) over antibody captured on anti-human Fc; 1:1 Langmuir global fit; FC2
Protocol: as §1

[15] = target: T1, human RAGE-Fc fusion protein; assay: ligand competition ELISA, panel 'Blocks hRAGE-Fc interaction with A-beta'; blocked ligand amyloid beta 1-42 peptide

T4 sequence (P05362 28-480 limits assumed): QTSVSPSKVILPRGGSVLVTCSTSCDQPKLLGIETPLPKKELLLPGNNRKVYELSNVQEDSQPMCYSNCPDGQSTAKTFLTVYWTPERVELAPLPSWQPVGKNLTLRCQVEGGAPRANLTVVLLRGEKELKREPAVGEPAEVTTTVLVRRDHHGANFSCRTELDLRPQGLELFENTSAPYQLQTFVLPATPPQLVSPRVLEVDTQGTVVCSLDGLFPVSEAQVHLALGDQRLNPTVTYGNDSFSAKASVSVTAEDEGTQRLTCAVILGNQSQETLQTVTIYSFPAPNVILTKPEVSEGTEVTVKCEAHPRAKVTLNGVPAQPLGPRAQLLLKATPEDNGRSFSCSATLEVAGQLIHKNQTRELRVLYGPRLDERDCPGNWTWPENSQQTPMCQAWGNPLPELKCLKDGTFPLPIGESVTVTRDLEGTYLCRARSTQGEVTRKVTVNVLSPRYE
rhNCAM-1, sequence (P13591 other isoform, or with tags, fused parts or gaps limits assumed): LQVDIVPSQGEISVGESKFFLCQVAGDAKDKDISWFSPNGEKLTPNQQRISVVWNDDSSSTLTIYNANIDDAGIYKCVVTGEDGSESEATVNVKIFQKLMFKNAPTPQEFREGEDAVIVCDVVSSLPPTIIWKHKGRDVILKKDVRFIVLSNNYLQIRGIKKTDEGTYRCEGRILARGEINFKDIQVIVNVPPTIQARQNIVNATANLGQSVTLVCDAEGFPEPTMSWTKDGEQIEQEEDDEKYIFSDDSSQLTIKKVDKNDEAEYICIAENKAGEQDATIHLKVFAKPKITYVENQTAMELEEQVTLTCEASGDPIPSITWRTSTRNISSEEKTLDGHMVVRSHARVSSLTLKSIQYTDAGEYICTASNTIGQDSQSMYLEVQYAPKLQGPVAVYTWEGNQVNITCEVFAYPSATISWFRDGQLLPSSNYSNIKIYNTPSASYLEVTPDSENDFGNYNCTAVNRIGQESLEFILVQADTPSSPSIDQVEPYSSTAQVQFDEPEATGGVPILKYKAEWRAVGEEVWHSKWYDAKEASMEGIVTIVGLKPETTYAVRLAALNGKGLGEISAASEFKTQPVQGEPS

B1: chimeric XT-M4 (antibody, V domains shown)
VH: EVQLVESGGGLVQPGRSLKLSCVVSGFTFNNYWMTWIRQTPGKGLEWVASINNSGDNTYYPDSVKDRFTISRDNAKSTLYLQMNSLRSEDTATYYCTRGGDITTGFDYWGQGVMVTVSS
VL: DIQMTQSPSSMSVSLGDTITITCRASQDVGIYVNWFQQKPGKSPRRMIYRATNLADGVPSRFSGSRSGSIYSLTISSLESEDVADYHCLEFDEHPLTFGSGTKVEIK
modifications: N-linked oligosaccharide at Asn52 (CDR2) on part of the heavy chains
notes: rat XT-M4 variable regions fused to human kappa light chain and human IgG1 heavy chain constant regions; L234A and G237A in the human IgG1 Fc region; also called chimeric antibody XT-M4; XT-M4-A-1
IC50 (read off the curve) [1]: ~0.08 µg/mL
Kd [2]: 11 nM
Kd [3]: 11 nM
Kd [4]: 1.9 nM
koff [4]: 0.0041 s⁻¹
kon [4]: 2.1e+06 M⁻¹ s⁻¹
Kd [5]: 11 nM
Kd [6]: 2 nM
koff [6]: 0.0041 s⁻¹
kon [6]: 2.1e+06 M⁻¹ s⁻¹
Kd [7]: ~5.5 nM
Kd [8]: 8.2 nM
koff [8]: 0.0281 s⁻¹
kon [8]: 3.42e+06 M⁻¹ s⁻¹
OD450 (rhICAM-1-Fc): 0.004
OD450 [9]: 3.8
OD450 (hLox1-Fc): 0.017
OD450 (rhNCAM-1): 0.006
Ka [10]: 1.77e+08 M⁻¹
Kd [10]: 5.66 nM
koff [10]: 0.0248 s⁻¹
kon [10]: 4.39e+06 M⁻¹ s⁻¹
IC50 (read off the curve) [11]: ~0.08 µg/mL
Kd [12]: 1.9 nM
koff [12]: 0.0041 s⁻¹
kon [12]: 2.1e+06 M⁻¹ s⁻¹
Kd [13]: 8.2 nM
koff [13]: 0.05 s⁻¹
kon [13]: 6.1e+06 M⁻¹ s⁻¹
Kd [14]: 1.9 nM
koff [14]: 0.0042 s⁻¹
kon [14]: 2.2e+06 M⁻¹ s⁻¹
IC50 (read off the curve) [15]: ~0.1 µg/mL

Reference: patent publication US20070253950A1 (Pfizer, published 2007)
